PMC2836968 (Molecular Biology of the Cell, 2010)

B1: Aha1 N-terminal domain (amino acids 1-162) (domain or fragment)
chain: MAKWGEGDPRWIVEERADATNVNNWHWTERDASNWSTDKLKTLFLAVQVQNEEGKCEVTEVSKLDGEASINNRKGKLIFFYEWSVKLNWTGTSKSGVQYKGHVEIPNLSDENSVDEVEISVSLAKDEPDTNLVALMKEEGVKLLREAMGIYISTLKTEFTQG
B2: Aha1 C-terminal domain (amino acids 163-338, with the linker region 163-200) (domain or fragment)
chain: MILPTMNGESVDPVGQPALKTEERKAKPAPSKTQARPVGVKIPTCKITLKETFLTSPEELYRVFTTQELVQAFTHAPATLEADRGGKFHMVDGNVSGEFTDLVPEKHIVMKWRFKSWPEGHFATITLTFIDKNGETELCMEGRGIPAPEEERTRQGWQRYYFEGIKQTFGYGARLF

Molecular target: human Hsp90β (human, UniProt P08238 1-724)
Assay: SPR

Sequence of human Hsp90β (P08238 whole entry): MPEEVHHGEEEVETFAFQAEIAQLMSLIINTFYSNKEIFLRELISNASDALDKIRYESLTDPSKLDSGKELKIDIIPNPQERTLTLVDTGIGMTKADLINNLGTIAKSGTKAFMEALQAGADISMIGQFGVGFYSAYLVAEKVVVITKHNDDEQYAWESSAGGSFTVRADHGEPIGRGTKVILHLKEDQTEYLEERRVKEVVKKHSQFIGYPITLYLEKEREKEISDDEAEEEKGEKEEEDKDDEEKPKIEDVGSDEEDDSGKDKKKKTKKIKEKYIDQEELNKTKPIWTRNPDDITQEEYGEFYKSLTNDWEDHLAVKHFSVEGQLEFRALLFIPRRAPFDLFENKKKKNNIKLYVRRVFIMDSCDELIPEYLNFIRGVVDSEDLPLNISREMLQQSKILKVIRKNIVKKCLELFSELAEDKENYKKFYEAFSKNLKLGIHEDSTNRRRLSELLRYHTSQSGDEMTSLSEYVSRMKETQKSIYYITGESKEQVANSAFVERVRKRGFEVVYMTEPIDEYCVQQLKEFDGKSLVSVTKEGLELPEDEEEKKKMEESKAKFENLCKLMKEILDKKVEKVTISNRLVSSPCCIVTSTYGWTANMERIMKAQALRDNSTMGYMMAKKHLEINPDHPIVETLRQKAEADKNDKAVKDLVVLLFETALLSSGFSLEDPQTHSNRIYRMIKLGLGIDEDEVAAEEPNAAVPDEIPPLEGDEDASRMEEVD

Binder | Kd [µM]
B1 | 2.5
B2 | 3.8
